Values quoted from earlier work as cited in US20020019334A1, “Nutritional intervention composition for enhancing and extending satiety” (priority 2000, published 2002).

Settings: injection, humans

B1: Cholecystokinin (peptide, UniProt P06307 21-115, looked up)
Cholecystokinin: QPVPPADPAGSGLQRAEEAPRRQLRVSQRTDGESRAHLGALLARYIQQARKAPSGRMSIVKNLQNLDPSHRISDRDYMGWMDFGRRSAEEYEYPS
modifications: Cholecystokinin
decrease of food intake: 16%
